Laboratory results taken from doi:10.1101/467431.

Molecular target: Sca2 full-length passenger domain, construct Sca_(34-1515) (Rickettsia conorii) (UniProt Q92JF7)
Experiment: ITC

monomeric actin (LatB-actin) (from UniProt P68135 1-377) (natural protein)
KD1 (two-site binding model): 0.19 µM | KD2 (two-site binding model): 0.02 µM | N of the single site model (called unrealistic): 0.6 | stoichiometry N (actin subunits per Sca (34-1515)): 2
